Data: the supplement of paper PMC9170038

Test system: MS2 coat protein
Experiment: apparent KD of MS2 coat protein; designed switch direction (-1 OFF switch, 1 ON switch): -1; higher = weaker reporter binding
Procedure, shortened: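 Transcription of designed RNA switches on Illumina chips was done by stalled E. coli RNA polymerase. SNAP-549-labelled MS2 coat protein was then titrated in doubling steps from 0.7 or 1.5 nM to 3 µM, with steps of 0.8–1.5 h at the lowest and 10–20 min at the highest concentration. The per-design median over clusters of curve-fitted normalised fluorescence is reported as apparent KD.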

[1] = Eterna round: R95, input ligand: FMN 200 uM
[2] = Eterna round: R95, input ligand: microRNA oligo, concentration not stated
[3] = Eterna round: R95, input ligand: none
[4] = input ligand: microRNA oligo, concentration not stated

Sequence	apparent KD of MS2 coat protein (input ligand: FMN 200 uM) [nM]	apparent KD of MS2 coat protein (input ligand: none) [nM]	apparent KD of MS2 coat protein [1] [nM]	apparent KD of MS2 coat protein [2] [nM]	apparent KD of MS2 coat protein [3] [nM]	apparent KD of MS2 coat protein [4] [nM]
GGACGGAAAGUGAGGAUAUGCUCUACCUCGGUAGAGCAGAAGGCACAUGAGGAUCACCCAUGUGAAAACUGUUC [Omei Ex4B B30] (Eterna round: R97, puzzle: Brourd's mod of Exclusion 4)	27.9	15.2	–	–	–	–
AUUGUAUGAGGAUAUACACCAGUGGGAGUGUCUUGCGUGAUACAUGAGGAUCACCCAUGUAGAAGGCGUACUAC [Eternabot (L2) Solution 90] (Eterna round: R97, puzzle: Exclusion 2)	36.9	16	–	–	–	–
UGGUGGAAGCAGGAUAUGCUAGAAGUGUAGUUUGCAGAAGGGCUAACAUGAGGAUCACCCAUGUAAGAGGUGUU [JR_E6_Sub053] (puzzle: Exclusion 6)	–	–	94.2	211	290	–
GCCAAGUCAGGAUAUACAUGAGGAUCACCCAUGUAGGACGCUAUUUUGAUCUUGGUAGGUAGAAGGGACAUGGG [Mainaso] (puzzle: Exclusion 3)	–	–	–	21.8	–	–
CCCUGACAUGAGGAUCACCCAUGUUAGGAUAUAACAUUUGACGCGACAGUGUGGAGUGUUAGAAGGGAUAUGGG [-28.4, -26.7 kcal, A 28%] (Eterna round: R97, puzzle: Exclusion 1)	29.9	20.8	–	–	–	–
AAAUAAUAGAUAAAAUAAAACAUGAGGAUCACCCAUGUGGGAAGAUGAGGGUGAAACAAGCUUUUUGCUCGUCUUAU (puzzle: Sensor v3, turn-off variant 1)	–	–	37.8	754	46.7	–
AAGAAACAUGAGGAUCACCCAUGUGAGGAUAUGAUGAAGAAAAGAAAAGAAAGAAGAAUCAGAAGGCACAAAGG [salish99-ex1_r3_043] (puzzle: Exclusion 1)	–	–	83.6	48.2	66.5	–
CCCUCACAUGAGGAUCACCCAUGUCAGGAUAUCUAGUCAGACAGUAUAGCACUGCUGAAGAGAAGGGACGUAAA [Labiusce] (puzzle: Exclusion 1)	–	–	–	17	–	–
GCAGCGUAUGUAGGAUAUCGGUCAGUUUCUGAUCGAGAAGGACAUGAGGAUCACCCAUGUGCGGUCAUGCGUGAGCAUGGCUGC [JL ENG1 3.74] (Eterna round: R96, puzzle: Exclusion NG 1)	268	41.2	–	–	–	31.3
AAUAACAGAGGAUAUACUAUUUUAUGUGUUUGUUGUUUUAAACAUGAGGAUCACCCAUGUAGAAGGCUGAAUAA [JMF 18] (puzzle: Exclusion 2)	–	–	–	20	–	–
AUACUCGAAGGAUAUGUGUAAGAGUACAUGAGGAUCACCCAUGUCCUAAGCACUUGGACGGCAGAAGGUCGACUGU [Eternabot (L2) Solution 36] (Eterna round: R97, puzzle: Exclusion 5)	57.7	25.1	–	–	–	–
AGUACUGACACGAAAGUGUUAGUACAAUAAGCUUGUGAAACAUGAGGAUCACCCAUGUCCUCAUAAGCUCGUCUUAU [salish99_TOv2_r3_017] (puzzle: Sensor v3, turn-off variant 2)	–	–	16	1200	13.8	–
UUGGUUGUGGUAGGAUAUCCGUUGGAAACCGUCGGAGAAGGACCACAGUCACUGGGUCUUUGUCUGGUGGACUGGAAUCACCAU [pwkr exNG1 F6.21] (Eterna round: R96, puzzle: Exclusion NG 1)	295	224	–	–	–	157
GUCUACCAGCUAGGAUAUGCAGUACAGUAAAAUGUAGAAGGAGCACGAUCCAGACAUGAGGAUCACCCAUGUGGGCGGUAGGCA [Vebiena] (Eterna round: R96, puzzle: Exclusion NG 1)	19.8	17.3	–	–	–	9.52
UUUAUGUCAGGAUAUGAUUAGAUCUACUUUUGUAGAUCUAAUCAGAAGGGACAUGAGGAUCACCCAUGUUUUUU [Ex4 - 3 - 15] (puzzle: Exclusion 4)	–	–	–	41.2	–	–
AAAAAACAAGGAUAUACAAAAAAAAAAAGUGAAAAAAAACCACAUGAGGAUCACCCAUGUAGAAGGUGUAAAAA [JR_Exclusion2_Sub002] (puzzle: Exclusion 2)	–	–	21.9	37.1	51.1	–
GUACUGACAGGAUAUACAUGAGGAUCACCCAUGUGCCUUAUCGCUACAAAAGUAGCGGGUAGAAGGGUCUGUAC [Omei Ex3 Model Bachelor's Dilema v19] (Eterna round: R97, puzzle: Exclusion 3)	41.8	16.4	–	–	–	–
